T1: aCBF5 (P. abyssi, UniProt Q9V1A5 1-334)
T1 construct: aCBF5, archaeal H/ACA sRNP pseudouridine synthase, P. abyssi; also called pseudouridine synthase aCBF5; source: purified recombinant proteins
T1 sequence (looked up): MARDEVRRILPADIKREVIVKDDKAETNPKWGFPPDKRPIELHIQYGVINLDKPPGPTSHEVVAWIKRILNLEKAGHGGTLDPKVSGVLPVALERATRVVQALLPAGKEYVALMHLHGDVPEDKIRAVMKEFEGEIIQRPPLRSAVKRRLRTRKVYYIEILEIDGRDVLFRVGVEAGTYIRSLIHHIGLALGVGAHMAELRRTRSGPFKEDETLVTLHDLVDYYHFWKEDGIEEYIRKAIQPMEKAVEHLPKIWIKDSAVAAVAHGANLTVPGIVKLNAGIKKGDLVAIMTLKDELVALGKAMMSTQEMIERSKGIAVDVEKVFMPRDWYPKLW


Molecular target: T1, aCBF5
Assay: native gel or EMSA; 32P 5' end-labelled sRNA Pab21 or Pab91 (~50 fmol) incubated with the proteins (200 nM each) in buffer D (150 mM KCl, 1.5 mM MgCl2, 0.2 mM EDTA, 20 mM HEPES pH 7.9) at 65°C for 10 min; non-denaturing polyacrylamide gel; the proteins are seen only through the shift of the labelled sRNA
Conditions: both partners purified

Row | Binder | binding result
1 | aNOP10 (natural protein, P. abyssi, UniProt Q9V0E3 1-60, looked up, aNOP10, archaeal H/ACA sRNP core protein, P. abyssi; source: purified recombinant proteins) MRFRIRKCPKCGRYTLKETCPVCGEKTKVAHPPRFSPEDPYGEYRRRLKRELLGIGRKEK | binds
2 | aNOP10 Y41A/Y44A (natural protein, P. abyssi, UniProt Q9V0E3 1-60, looked up, aNOP10, P. abyssi, with two alanine substitutions in helix alpha1; also called aNOP10 mutant Y41A/Y44A; source: purified recombinant proteins) MRFRIRKCPKCGRYTLKETCPVCGEKTKVAHPPRFSPEDPAGEARRRLKRELLGIGRKEK | binds

Source: paper PMC3726423, “Comparative Study of Two Box H/ACA Ribonucleoprotein Pseudouridine-Synthases: Relation between Conformational Dynamics of the Guide RNA, Enzyme Assembly and Activity” (PLoS ONE, 2013)
